Data from patent US20140178394A1 (INSERM INSTITUT NATIONAL DE LA SANTE ET DE LA RECHERCHE …, published 2014).

B1: Nectin4 peptide 355 (VIAALLFCL) (peptide)
peptide: VIAALLFCL
notes: Synthetic nonapeptide of human nectin4; the range counts on nectin4
B2: antigen peptide N4-145 (VLVPPLPSL) (peptide)
peptide: VLVPPLPSL
notes: as for B1
B3: Nectin4 peptide 255 (DQNLWHIGR) (peptide)
peptide: DQNLWHIGR
notes: as for B1
B4: Nectin4 peptide 347 (SASVVVVGV) (peptide)
peptide: SASVVVVGV
notes: as for B1
B5: Nectin4 peptide 19 (LLLLASFTG) (peptide)
peptide: LLLLASFTG
notes: as for B1
B6: Nectin4 peptide 443 (RSYSTLTTV) (peptide)
peptide: RSYSTLTTV
notes: as for B1
B7: reference peptide 517 (MAGE-A10), GLYDGMEHL (peptide)
peptide: GLYDGMEHL
notes: Control peptide from the literature, tested here
B8: Nectin4 peptide 357 (AALLFCLLV) (peptide)
peptide: AALLFCLLV
notes: as for B1
B9: Nectin4 peptide 80 (ALLHSKYGL) (peptide)
peptide: ALLHSKYGL
notes: Synthetic nonapeptide of human nectin4; the range counts on nectin4; also called Pep N° 80
B10: Nectin4 peptide 354 (GVIAALLFC) (peptide)
peptide: GVIAALLFC
notes: as for B1
B11: Nectin4 peptide 215 (SMNGQPLTC) (peptide)
peptide: SMNGQPLTC
notes: as for B1
B12: Nectin4 peptide 351 (VVVGVIAAL) (peptide)
peptide: VVVGVIAAL
notes: as for B1
B13: Nectin4 peptide 239 (ILHVSFLAE) (peptide)
peptide: ILHVSFLAE
notes: as for B1
B14: Nectin4 peptide 244 (FLAEASVRG) (peptide)
peptide: FLAEASVRG
notes: as for B1
B15: Nectin4 peptide 137 (FQARLRLRV) (peptide)
peptide: FQARLRLRV
notes: as for B1
B16: Nectin4 peptide 345 (LVSASVVVV) (peptide)
peptide: LVSASVVVV
notes: as for B1
B17: Nectin4 peptide 203 (AVTSEFHLV) (peptide)
peptide: AVTSEFHLV
notes: as for B1
B18: Nectin4 peptide 358 (ALLFCLLVV) (peptide)
peptide: ALLFCLLVV
notes: as for B1
B19: Nectin4 peptide 21 (LLASFTGRC) (peptide)
peptide: LLASFTGRC
notes: Synthetic nonapeptide of human nectin4; the range counts on nectin4; also called Pep N° 21
B20: reference peptide 503 (PR3; Proteinase3), NLSASVATV (peptide)
peptide: NLSASVATV
notes: as for B7
B21: Nectin4 peptide 359 (LLFCLLVVV) (peptide)
peptide: LLFCLLVVV
notes: as for B1
B22: reference peptide 519 (Tyrosinase), YMDGTMSQV (peptide)
peptide: YMDGTMSQV
notes: Control peptide from the literature, tested here; also called tyrosinase peptide
B23: Nectin4 peptide 35 (GTSDVVTVV) (peptide)
peptide: GTSDVVTVV
notes: as for B1
B24: Nectin4 peptide 266 (AMLKCLSEG) (peptide)
peptide: AMLKCLSEG
notes: as for B1
B25: reference peptide 515 (MAGE-A3), KVAELVHFL (peptide)
peptide: KVAELVHFL
notes: as for B7
B26: reference peptide 520 (GnTV), VLPDVFIRC (peptide)
peptide: VLPDVFIRC
notes: Control peptide from the literature, tested here; also called GnTV peptide
B27: Nectin4 peptide 238 (HILHVSFLA) (peptide)
peptide: HILHVSFLA
notes: Synthetic nonapeptide of human nectin4; the number is the start position in nectin4 (the range counts on nectin4)

Key:
[1] = target: T1, HLA-A*0201 on the CEM.T2 cell line (T2) (human); test: T2 cell dissociation assay with Brefeldin A, flow cytometry
T1 construct: whole, on cells
Procedure: (§1) After 3 washes, cells were fixed in PBS supplemented with 2% paraformaldehyde and analyzed by FACS (FACScan, BD Bioscience). The percentage of peptide binding was calculated as follows:
(§2) After 3 washes, T2 cells were incubated for 3 h in serum-free RPMI at 37° C. Binding was then measured by FACS and after 4 h incubation. Percentage of Residual Binding (% RB) was calculated as follows:

[2] = target: T2, HLA-A*0201 HLA class I MHC monomer (iTopia Epitope Discovery System, coated on plate) (human); test: iTopia EDS multiparametric score (binding, off-rate, affinity)
T2 construct: Placeholder peptide stripped; also called HLA-A2; MHC class I monomer
Source text: (§3) Microtiter 96 well plates containing HLA class I MHC monomer loaded with the human β2-microglobulin and a “placeholder” peptide were used to evaluate peptide binding, affinity, and off-rate.
The iTopia system software was used to include, binding, off-rate (T1/2 value) and affinity (ED50 value) data collected for each peptide, in a multiparametric score called iScore.

[3] = target: T2, HLA-A*0201 HLA class I MHC monomer …; test: iTopia EDS off-rate assay at 37 C; time to 50% complex dissociation
Source text: as §3
(§4) This assay evaluates the dissociation rate of “binder” peptides as a function of time.

[4] = target: T2, HLA-A*0201 HLA class I MHC monomer …; test: iTopia EDS affinity assay; peptide titration, printed as Affinity (ED50)
[5] = target: T2, HLA-A*0201 HLA class I MHC monomer …; test: iTopia EDS peptide binding assay on plate-coated MHC monomer; % of positive control peptide
[6] = target: T1, HLA-A*0201 on the CEM.T2 cell line (T2); test: T2 cell HLA-A*0201 stabilization, 100 µM peptide, flow cytometry; % of HBV positive control
Procedure: as §1

[7] = target: T2, HLA-A*0201 HLA class I MHC monomer …; test: iTopia EDS off-rate assay
Procedure: as §4
The relative stability of each complex was evaluated for a period of 8 h as described in material and methods. Off-rate stability was determined by measuring the dissociation time of the complex (t1/2).

[8] = target: T2, HLA-A*0201 HLA class I MHC monomer …; test: iTopia EDS affinity assay; peptide titration (ED50)
[9] = target: T2, HLA-A*0201 HLA class I MHC monomer …; test: overall rank from iTopia EDS and CEM T2 assays on HLA-A*0201
[10] = target: T1, HLA-A*0201 on the CEM.T2 cell line (T2); test: T2 cell HLA-A*0201 stabilization and dissociation, flow cytometry
Procedure: as §1, §2

Binder	CEM.T2 % Residual Binding [1] [%]	iScore [2]	T½ Value [3] [h]	EC50 [4] [nM]	% Binding [5] [%]	CEM.T2 % Binding [6] [%]	t1/2 [7] [h]	EC50 [8] [nM]	RANK F-Score [9]	binding score [10]
B1	24	0.888	5.2	30	59	18	–	–	–	–
B2	54	0.783	7.4	500	67	76	> 6	~100	6	> 50 % of positive control
B3	0	0.539	5.4	500	62	6	–	–	–	–
B4	0	0.708	3.7	200	64	40	–	–	–	–
B5	0	0.659	2.1	60	75	17	–	–	–	–
B6	0	0.521	2.4	300	68	37	–	–	–	–
B7	–	–	–	–	–	–	–	–	8	–
B8	18	0.619	3.8	100	56	15	–	–	–	–
B9	86	0.815	7.8	1000	87	53	> 6	~100	4	> 50 % of positive control
B10	0	0.845	6.2	90	61	10	–	–	–	–
B11	0	0.689	6.8	700	81	21	–	–	–	–
B12	50	0.784	3.4	30	58	82	–	–	5	> 50 % of positive control
B13	0	0.51	2.3	200	61	10	–	–	–	–
B14	0	0.533	2.8	700	78	12	–	–	–	–
B15	72	0.66	7.3	–	69	30	–	–	–	–
B16	0	0.626	2.3	60	51	11	–	–	–	–
B17	0	0.533	3.5	400	64	48	–	–	–	–
B18	26	0.71	6.1	200	53	26	–	–	–	–
B19	86	0.727	6	600	91	44	> 6	~100	11	–
B20	–	–	–	–	–	–	–	–	9	–
B21	23	0.674	7.4	500	67	7	–	–	–	–
B22	–	–	–	–	–	–	–	–	3	–
B23	0	0.539	2.9	300	63	60	–	–	–	–
B24	39	0.667	6.8	700	74	31	–	–	–	–
B25	–	–	–	–	–	–	–	–	10	–
B26	–	–	–	–	–	–	–	–	1	–
B27	66	1.43	6.7	60	87	37	–	–	7	–
